The values that follow come from patent publication US20240043528A1, “NANOBODY-OGA FUSIONS AND USES THEREOF” (President and Fellows of Harvard College, priority 2020, published 2024).

One series relates to GFP-Nup62. The experiment in a line: Deglycosylation of GFP-Nup62 co-expressed with OGA constructs (anti-EPEA enrichment, RL2 immunoblot). It counts as cell-based, human. Conditions: for deglycosidase activity on GFP-Nup62 of N fragment: N fragment paired with C1 (aa 414-916). The protocol: HEK 293T cells were cultured in Dulbecco's Modified Eagle Medium (DMEM, Cat #11995073) supplemented with penicillin (50 μg/mL) and streptomycin (50 μg/mL) along with 10% (v/v) FBS. Transfections of all plasmids in this study were performed using TransIT-PRO® (Mirus Bio, Cat #MIR 5740) according to the manufacturer's instructions.
Glycoproteins Nup62, Sp1, JunB, c-Jun were subcloned into pcDNA3.1 vector with a GFP and a Flag-tag or a BC2 tag in the N-terminus and an EPEA tag in the C terminus respectively, unless otherwise noted. For all split OGA constructs with or without the fusion of nanobody GFP, N fragments were tagged with myc tag and C fragments were tagged with HA tag respectively. Human SP1 cDNA ORF plasmid (Cat #HG12024-G), human c-Fos cDNA ORF plasmid, and human OGT cDNA ORF cloned with a C-terminal His tag (Cat #HG11279-M) were purchased from Sino Biological. For subcloning, PCR fragments were amplified using Q5 High-Fidelity 2× Master Mix (New England BioLabs, Cat #M0492S). The vectors were double-digested and ligated to gel-purified PCR products by T4 ligation using T4 DNA ligase (New England BioLabs, Cat #M0202S) or by Gibson assembly using Gibson Assembly Master mix (New England BioLabs, Cat #E2611L). c-Fos was subcloned into a pcDNA3.1 vector with a 14-residue Ubc tag (amino acids: QADQEAKELARQIA (SEQ ID NO: 11)), Flag tag, and EPEA tag at the C terminus. All nanobody DNA fragments were synthesized by IDT.
After 36-48 h of transfection, cells were harvested and washed with PBS once. Cells were lysed with M-PER lysis buffer containing 1× protease inhibitor cocktail and 10 μM Thiamet-G unless otherwise noted. Protein concentrations were determined by the BCA assay kit (G-Biosciences, 786) on a multi-mode microplate reader FilterMax F3 (Molecular Devices LLC, Sunnyvale, CA).
For immunoprecipitation of proteins with the C-terminal EPEA tag, cell lysates with equal amounts of protein were diluted with PBS and incubated with C-tag affinity matrix (Thermo Scientific) for 1 h at room temperature, with end-to-end rotation, following the manufacturer's instructions. After washing three times with PBS buffer, the enriched proteins were eluted with SDS sample buffer and subjected to SDS-PAGE.
For immunoblotting analysis, proteins were transferred to a nitrocellulose membrane using iBlot (Thermo Scientific). Membranes were blocked with Tris buffered saline containing 0.1% Tween-20 and 5% BSA and incubated with the primary antibodies (1:1000 dilution) and the secondary antibodies (1:10,000 dilution) sequentially. Immunoblot images were captured by Azure Imager C600. Analysis of immunoblots was conducted with Fiji ImageJ. All IR fluorescence western blot images are converted into grayscale images by Fiji ImageJ. The unsaturated exposure of immunoblot images was used for quantification with the appropriate loading controls as standards. Statistical analysis of the data was performed with Prism 8, using data from at least three independent experiments.

For another series, the target named is T1, myc-OGA(1-400) (human, UniProt O60502 1-400).
T1 construct: also called N2; N fragment
T1 sequence: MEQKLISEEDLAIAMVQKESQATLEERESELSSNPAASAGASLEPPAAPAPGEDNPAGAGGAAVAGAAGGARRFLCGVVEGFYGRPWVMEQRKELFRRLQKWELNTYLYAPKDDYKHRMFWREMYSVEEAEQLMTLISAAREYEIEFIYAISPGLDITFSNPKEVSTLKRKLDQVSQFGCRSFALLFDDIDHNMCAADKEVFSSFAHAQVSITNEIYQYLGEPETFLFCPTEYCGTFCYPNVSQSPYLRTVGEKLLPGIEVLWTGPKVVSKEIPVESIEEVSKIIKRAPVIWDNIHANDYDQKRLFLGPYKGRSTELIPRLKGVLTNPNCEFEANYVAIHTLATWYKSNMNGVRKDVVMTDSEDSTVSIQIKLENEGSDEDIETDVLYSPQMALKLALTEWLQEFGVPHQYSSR
The series is described as follows: co-immunoprecipitation (anti-c-Myc / anti-HA magnetic beads) from HEK 293T lysates, immunoblot. The protocol: The asterisk indicates IgG heavy chain from anti-c-Myc magnetic beads. […] In FIG. 9A and FIG. 9C, activities of fragments alone or pairs with/without nGFP were evaluated on GFP-Nup62, which was enriched by beads against EPEA tag and blotted with RL2 antibody to reveal O-GlcNAc modification level. D174N is a catalytically impaired mutation on OGA. Anti-myc and anti-HA blots detect expression of full-length (fl-OGA) or N-terminal fragment, and C-terminal fragment, respectively. WCL, whole cell lysates. The data in FIGS. 9A-9C are representative of at least two biological replicates.
For immunoprecipitation of proteins with anti-HA (Pierce, 88836) or anti-c-Myc (Pierce, 88842) magnetic beads, cell lysates with equal amounts of protein were diluted with 1×TBS-T buffer (25 mM Tris HCl pH 7.4, 150 mM NaCl, 0.05% Tween-20) and incubated with pre-washed magnetic beads at room temperature for 30 min with mixing, following the manufacturer's instructions. Anti-HA magnetic beads were washed three times with TBS-T buffer and once with ultrapure water. Anti-c-Myc magnetic beads were washed three times with 5×TBS-T buffer and once with ultrapure water. The enriched proteins were eluted with SDS sample buffer and subjected to SDS-PAGE.

Another series addresses T2, HA-OGA(414-916), O60502.
T2 chain: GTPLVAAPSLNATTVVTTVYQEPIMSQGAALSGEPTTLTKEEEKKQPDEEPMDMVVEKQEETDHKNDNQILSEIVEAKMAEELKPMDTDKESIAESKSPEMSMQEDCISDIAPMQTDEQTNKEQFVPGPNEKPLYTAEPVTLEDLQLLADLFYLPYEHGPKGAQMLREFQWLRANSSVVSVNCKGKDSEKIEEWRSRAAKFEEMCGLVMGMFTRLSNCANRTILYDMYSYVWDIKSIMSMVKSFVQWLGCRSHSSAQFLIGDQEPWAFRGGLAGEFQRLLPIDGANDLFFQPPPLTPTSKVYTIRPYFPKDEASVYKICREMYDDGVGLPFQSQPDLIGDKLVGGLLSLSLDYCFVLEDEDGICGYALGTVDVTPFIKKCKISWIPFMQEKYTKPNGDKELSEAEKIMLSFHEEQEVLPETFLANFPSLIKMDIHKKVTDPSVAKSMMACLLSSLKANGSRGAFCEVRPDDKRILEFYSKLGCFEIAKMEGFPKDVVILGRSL

Entries after “also recorded” stand apart in the source; their conditions may differ.

B1: N2: myc-OGA(1-400) N fragment (SEQ ID NO: 4) (protein)
chain: MEQKLISEEDLAIAMVQKESQATLEERESELSSNPAASAGASLEPPAAPAPGEDNPAGAGGAAVAGAAGGARRFLCGVVEGFYGRPWVMEQRKELFRRLQKWELNTYLYAPKDDYKHRMFWREMYSVEEAEQLMTLISAAREYEIEFIYAISPGLDITFSNPKEVSTLKRKLDQVSQFGCRSFALLFDDIDHNMCAADKEVFSSFAHAQVSITNEIYQYLGEPETFLFCPTEYCGTFCYPNVSQSPYLRTVGEKLLPGIEVLWTGPKVVSKEIPVESIEEVSKIIKRAPVIWDNIHANDYDQKRLFLGPYKGRSTELIPRLKGVLTNPNCEFEANYVAIHTLATWYKSNMNGVRKDVVMTDSEDSTVSIQIKLENEGSDEDIETDVLYSPQMALKLALTEWLQEFGVPHQYSSR
modifications: myc tag
On to B1, for which the “deglycosidase activity on GFP-Nup62 of N fragment” value in the series on GFP-Nup62 (HEK 293T cells) was “possessed deglycosylation capability when paired with C1”.

B2: HA-OGA(554-706) (enzyme, human, UniProt O60502 554-706, looked up)
chain: TLEDLQLLADLFYLPYEHGPKGAQMLREFQWLRANSSVVSVNCKGKDSEKIEEWRSRAAKFEEMCGLVMGMFTRLSNCANRTILYDMYSYVWDIKSIMSMVKSFVQWLGCRSHSSAQFLIGDQEPWAFRGGLAGEFQRLLPIDGANDLFFQPP
notes: range 554-706; the legend prints C4; also called C4; not shown: N-terminal HA tag
As to B2, the binding result with myc-OGA(1-400) was “no binding”.

B3: myc-OGA(1-413) (protein)
chain: MVQKESQATLEERESELSSNPAASAGASLEPPAAPAPGEDNPAGAGGAAVAGAAGGARRFLCGVVEGFYGRPWVMEQRKELFRRLQKWELNTYLYAPKDDYKHRMFWREMYSVEEAEQLMTLISAAREYEIEFIYAISPGLDITFSNPKEVSTLKRKLDQVSQFGCRSFALLFDDIDHNMCAADKEVFSSFAHAQVSITNEIYQYLGEPETFLFCPTEYCGTFCYPNVSQSPYLRTVGEKLLPGIEVLWTGPKVVSKEIPVESIEEVSKIIKRAPVIWDNIHANDYDQKRLFLGPYKGRSTELIPRLKGVLTNPNCEFEANYVAIHTLATWYKSNMNGVRKDVVMTDSEDSTVSIQIKLENEGSDEDIETDVLYSPQMALKLALTEWLQEFGVPHQYSSRQVAHSGAKASVVD
For the molecule B3, the “deglycosidase activity on GFP-Nup62 (O-GlcNAc RL2 immunoblot)” value with HA-OGA(414-916), O60502 is “The N- and C-terminal fragments can associate to reconstitute OGA enzymatic activity when co-expressed simultaneously in living cells”.

B4: OGA(cat): catalytic domain of OGA alone, residues 1-366, myc tag (protein, UniProt O60502 1-366, looked up, fragment)
chain: MVQKESQATLEERESELSSNPAASAGASLEPPAAPAPGEDNPAGAGGAAVAGAAGGARRFLCGVVEGFYGRPWVMEQRKELFRRLQKWELNTYLYAPKDDYKHRMFWREMYSVEEAEQLMTLISAAREYEIEFIYAISPGLDITFSNPKEVSTLKRKLDQVSQFGCRSFALLFDDIDHNMCAADKEVFSSFAHAQVSITNEIYQYLGEPETFLFCPTEYCGTFCYPNVSQSPYLRTVGEKLLPGIEVLWTGPKVVSKEIPVESIEEVSKIIKRAPVIWDNIHANDYDQKRLFLGPYKGRSTELIPRLKGVLTNPNCEFEANYVAIHTLATWYKSNMNGVRKDVVMTDSEDSTVSIQIKLENEGSDE
modifications: catalytic domain myc tag
notes: catalytic domain of OGA alone, residues 1-366, myc tag
On to B4, for which the “deglycosidase activity on GFP-Nup62 of N fragment” value in the series on GFP-Nup62 (HEK 293T cells) is “no activity was seen on GFP-Nup62”. For the same molecule, the “deglycosidase activity / O-GlcNAc modification level on GFP-Nup62” value in the series with GFP-Nup62 (co-expressed in HEK 293T cells) is “inactive”. Also, in the series on GFP-Nup62 (nGFP fused to a fragment, HEK 293T cells, listed as N3), the “deglycosidase activity on GFP-Nup62 after fusion of nGFP” value is reported as “could not be recovered; also recorded: unable to reconstitute OGA's activity with any C-fragments shown in this study even in the presence of nGFP”.
